Test results: paper PMC7954794, “Protein context shapes the specificity of SH3 domain-mediated interactions in vivo” (Nature Communications, 2021)

B1: YDL065C (protein, UniProt Q07418 1-339, looked up)
Peroxisomal membrane protein …: MNENEYDNFDDLDDLLDEDPTKLDEAEPDDVQAKGSVYNDSENKEKNAESKDSDGVQVANESEEDPELKEMMVDLQNEFANLMKNNGNENNVKTEDFNKLISALEEAAKVPHQQMEQGCSSLKSNSTDKGTVNGSNPGFKNIVSNTLDRLKENGNKVDTSLAEETKESQRSGQNNNIDDILSQLLDQMVASGGKESAENQFDLKDGEMDDAITKILDQMTSKEVLYEPMKEMRSEFGVWFQENGENEEHKEKIGTYKRQFNIVDEIVNIYELKDYDELKHKDRVTELLDELEQLGDSPIRSANSPLKHGNEEEELMKMLEIDGNDPNLGNLDKELTDGC
B2: ABP1 T18T (protein, UniProt P15891 2-592, looked up)
Actin-binding protein: ALEPIDYTTHSREIDAEYLKIVRGSDPDTTWLIISPNAKKEYEPESTGSSFHDFLQLFDETKVQYGLARVSPPGSDVEKIIIIGWCPDSAPLKTRASFAANFAAVANNLFKGYHVQVTARDEDDLDENELLMKISNAAGARYSIQTSSKQQGKASTPPVKKSFTPSKSPAPVSKKEPVKTPSPAPAAKISSRVNDNNDDDDWNEPELKERDFDQAPLKPNQSSYKPIGKIDLQKVIAEEKAKEDPRLVQKPTAAGSKIDPSSDIANLKNESKLKRDSEFNSFLGTTKPPSMTESSLKNDDDKVIKGFRNEKSPAQLWAERKAKQNSGNAETKAEAPKPEVPEDEPEGEPDVKDLKSKFEGLAASEKEEEEMENKFAPPPKKSEPTIISPKPFSKPQEPVKAEEAEQPKTDYKKIGNPLPGMHIEADNEEEPEENDDDWDDDEDEAAQPPLPSRNVASGAPVQKEEPEQEEIAPSLPSRNSIPAPKQEEAPEQAPEEEIEEEAEEAAPQLPSRSSAAPPPPPRRATPEKKPKENPWATAEYDYDAAEDNELTFVENDKIINIEFVDDDWWLGELEKDGSKGLFPSNYVSLGN
modifications: synonymous codon change T18T
B3: ABP1 F19F (protein, UniProt P15891 2-592, looked up)
Actin-binding protein: B2 Actin-binding protein
modifications: synonymous codon change F19F
B4: ABP1 V20V (protein, UniProt P15891 2-592, looked up)
Actin-binding protein: B2 Actin-binding protein
modifications: synonymous V20V codon change in SH3
B5: ABP1 E21E (protein, UniProt P15891 2-592, looked up)
Actin-binding protein: B2 Actin-binding protein
modifications: synonymous codon change E21E in SH3
B6: ABP1 N22N (protein, UniProt P15891 2-592, looked up)
Actin-binding protein: B2 Actin-binding protein
modifications: synonymous codon change N22N
B7: ABP1 D23D (protein, UniProt P15891 2-592, looked up)
Actin-binding protein: B2 Actin-binding protein
modifications: synonymous codon change D23D
B8: YDR329C (protein, UniProt P28795 1-441, looked up)
Peroxisomal biogenesis factor …: MAPNQRSRSLLQRHRGKVLISLTGIAALFTTGSVVVFFVKRWLYKQQLRITEQHFIKEQIKRRFEQTQEDSLYTIYELLPVWRMVLNENDLNLDSIVTQLKDQKNQLTRAKSSESRESSPLKSKAELWNELELKSLIKLVTVTYTVSSLILLTRLQLNILTRNEYLDSAIKLTMQQENCNKLQNRFYNWVTSWWSDPEDKADDAMVMAAKKSKKEGQEVYINEQAFLSLSWWILNKGWLSYNEIITNQIEIEFDGIHPRDTLTLEEFSSRLTNIFRNTNSQIFQQNNNNLTSILLPKDSSGQEFLLSQTLDADALTSFHSNTLVFNQLVNELTQCIESTATSIVLESLINESFHFIMNKVGIKTIAKKKPGQEDQQQYQMAVFAMSMKDCCQEMLQTTAGSSHSGSVNEYLATLDSVQPLDDLSASVYSNFGVSSSFSFKP
B9: YGL153W (protein, UniProt P53112 2-341, looked up)
Peroxisomal membrane protein …: SDVVSKDRKALFDSAVSFLKDESIKDAPLLKKIEFLKSKGLTEKEIEIAMKEPKKDGIVGDEVSKKIGSTENRASQDMYLYEAMPPTLPHRDWKDYFVMATATAGLLYGAYEVTRRYVIPNILPEAKSKLEGDKKEIDDQFSKIDTVLNAIEAEQAEFRKKESETLKELSDTIAELKQALVQTTRSREKIEDEFRIVKLEVVNMQNTIDKFVSDNDGMQELNNIQKEMESLKSLMNNRMESGNAQDNRLFSISPNGIPGIDTIPSASEILAKMGMQEESDKEKENGSDANKDDNAVPAWKKAREQTIDSNASIPEWQKNTAANEISVPDWQNGQVEDSIP
B10: YLR191W (protein)
chain: EFARALYDFVPENPEMEVALKKGDLMAILSKKDPLGRDSDWWKVRTKNGNIGYIPYNYIEIIK
B11: YOL147C (protein, UniProt Q12462 2-236, looked up)
Peroxisomal membrane protein …: VCDTLVYHPSVTRFVKFLDGSAGREKVLRLLQYLARFLAVQNSSLLARQLQAQFTTVRKFLRFLKPLNHLQAAAKFYDNKLASDNVVRVCNVLKNIFFAAYLSLDQVNLLRILKVIPVTVLTGKKIPRWSNWCWLFGLLSGLAMDLRKIQTSHAQIAAFVKAKSQSQGDEHEDHKKVLGKAYQDRYTALRRLFWDAADSFIVLNNLGYLSSNEEYVALSGVVTSILGMQDMWKAT

System: ABP1
Assay: DHFR-PCA on solid medium, bait ABP1 (Fig. 1B)
Format: cell-based, Saccharomyces cerevisiae
Details: bait ABP1, label = prey; 2-4 replicates
Text: (§1) Supplement 41467_2021_21873_MOESM8_ESM.xlsx, sheet "Fig1B" | column: medsize; medrep; Ratio; Score

For B1, the “medrep (log2 median colony size normalized to plate background, PCA score)” value was 3.518.

Same assay, conditions: bait ABP1, label = prey; only significant differences showed; PPIs completely lost have a ratio of 0.1 and the gained PPIs 2.5

For B1, the “Ratio (SH3-deleted/WT medrep)” value was 1.321.

System: Lsb3
Assay: Deep mutational scanning of Abp1 SH3, Abp1-Lsb3 DHFR-PCA (DMS score)
Format: cell-based, Saccharomyces cerevisiae
Details: frequencies normalized to the reference condition; Abp1-Lsb3 DHFR-PCA, MTX2; amino acid level
Procedure: (§2) Single site mutation libraries were generated by a PCR-based saturation mutagenesis method[50] as described below. The mutagenesis was carried out on the pUC19 plasmid containing the SH3 domain sequence of ABP1 flanked by its homology arms subsequently used in the CRISPR mediated genomic re-integration. We used oligos containing degenerate nucleotides (NNN) to carry out the mutagenesis at each codon of the domain sequence. In the first step of the two-step PCR procedure (short PCR step), an amplicon was generated with an oligo containing the degenerate codon which is positioned within the domain sequence, and another oligo lying outside Abp1 sequence in the plasmid. Short PCR step was carried out with the following settings: 5 min at 95 °C, 35 cycles: 20 s at 98 °C, 15 s at 60 °C, 30 s at 72 °C, and a final extension of 1 min at 72 °C. The amplicon generated in this step was used as a mega primer in the second step (long PCR step) to amplify the whole plasmid. Long PCR step was carried out with the following settings: 5 min at 95 °C, 22 cycles: 20 s at 98 °C, 15 s at 68 °C, 3 min 30 s at 72 °C, and a final extension of 5 min at 72 °C. The long PCR product was digested for 2 h at 37 °C with DpnI. The digestion product was then transformed into E. coli MC1061 competent cells. In order to obtain most of the 64 possible codons, we recovered ~1000 colonies from each plate to retrieve the plasmid single mutant libraries. Saturation mutagenesis was carried out in a codon-position-wise manner. Mutants at each position were stored separately. Library quality control was assessed by amplifying the purified plasmid DNA preparations by PCR followed by Illumina sequencing as described below. The genomic insertion of the mutant libraries (one library per amino acid position) was performed by targeting the stuffer sequence in the ABP1 SH3-deleted strain as described in the strain construction section. ABP1 SH3-deleted yeast competent cells were co-transformed with pCAS containing the stuffer-specific gRNA and PCR amplified ABP1 SH3 single position mutated libraries from the pUC19 preparations. As for the library generation, ~1000 colonies from each plate were retrieved. Glycerol stocks of yeast cells were kept for each position (58 different stocks corresponding to the 58 amino acid positions of Abp1 SH3). The stocks were also validated by Illumina sequencing (see below).
(§3) Liquid DHFR-PCA experiments were performed following the generation of the ABP1 SH3 single position mutated yeast strains and were performed in biological independent duplicates. An overnight culture was started in YPD + NAT by adding the same number of cells from each yeast mutant strain (master pool). Then, the master pool and Hua2-DHFR F[3] or Lsb3-DHFR F[3] preys strains were mixed in YPD (2:1) for mating and incubated for 8 h at 30 °C. Diploid cells were selected the first time by transferring the mixture in a YPD + NAT + HPH (OD 0.5) culture for 16 h at 30 °C. The next day, the first diploid selection was transferred in SC complete pH 6.0 + NAT + HPH at 0.5 OD and the culture was grown for 24 h at 30 °C. The validation of the yeast mutant libraries was done the next day with a fraction of the diploid cells (first DHFR-PCA experiment time point without PCA selection, reference condition S2) by amplifying ABP1 SH3 genomic sequence followed by Illumina sequencing as described in the section below. Following the selection, diploid cells OD was read using a TECAN Infinite F200 Pro, and dilutions to 0.1 OD in PCA selection media without agar in a 50 mL tube was done. Tubes were incubated at 30 °C for 72 h (second-time point of the DHFR-PCA experiment, first PCA selection). A fraction of the cells (5U OD) was collected for Illumina sequencing. The cells from the first PCA step were grown for a second PCA selection step using the same procedures. […]

First: B2
Second: B3
The LSB3_MTX2 of the first is lower: 1.406 for the first, 1.966 for the second.

Going from B4 to B5, the LSB3_MTX2 rises from 1.496 to 2.169.

Compared with B6, B7 is higher in LSB3_MTX2: 0.8355 for the first, 1.357 for the second.

Same assay, conditions: frequencies scaled to the synonymous mutation distribution; Abp1-Lsb3 DHFR-PCA

First: B2
Second: B3
The “lsb3sc (DMS score)” value of the first is lower: -0.09387 for the first, 0.4657 for the second.

Compared with B4, B5 is higher in “lsb3sc (DMS score)” value: -0.004531 for the first, 0.669 for the second.

Going from B6 to B7, the “lsb3sc (DMS score)” value rises from -0.6648 to -0.1431.

System: Hua2
Assay: Deep mutational scanning of Abp1 SH3, Abp1-Hua2 DHFR-PCA (DMS score)
Format: cell-based, Saccharomyces cerevisiae
Details: frequencies normalized to the reference condition; Abp1-Hua2 DHFR-PCA, MTX2; amino acid level
Procedure: as §2, §3

Compared with B2, B3 is higher in HUA2_MTX2: 1.603 for the first, 2.091 for the second.

First: B4
Second: B5
The HUA2_MTX2 of the first is lower: 1.042 for the first, 2.3423 for the second.

Going from B6 to B7, the HUA2_MTX2 rises from 0.8417 to 1.908.

Same assay, conditions: frequencies scaled to the synonymous mutation distribution; Abp1-Hua2 DHFR-PCA

First: B2
Second: B3
The “hua2sc (DMS score)” value of the first is lower: -0.009347 for the first, 0.4783 for the second.

First: B4
Second: B5
The “hua2sc (DMS score)” value of the first is lower: -0.571 for the first, 0.7295 for the second.

First: B6
Second: B7
The “hua2sc (DMS score)” value of the first is lower: -0.7711 for the first, 0.295 for the second.

System: BEM1-1
Assay: DHFR-PCA on solid medium, bait BEM1-1 (Fig. 1B)
Format: cell-based, Saccharomyces cerevisiae
Details: bait BEM1-1, label = prey; 2-8 replicates
Text: as §1

Going from B1 to B8, the “medrep (log2 median colony size normalized to plate background, PCA score)” value falls from 3.086 to 2.151.

First: B9
Second: B10
The “medrep (log2 median colony size normalized to plate background, PCA score)” value of the first is lower: 2.088 for the first, 3.807 for the second.

With B11 the “medrep (log2 median colony size normalized to plate background, PCA score)” value was 4.705.

Same assay, conditions: bait BEM1-1, label = prey; only significant differences showed; PPIs completely lost have a ratio of 0.1 and the gained PPIs 2.5

B1 and B8 are the same in “Ratio (SH3-deleted/WT medrep)” value: 2.5 for the first, 2.5 for the second.

B9 and B10 are the same in “Ratio (SH3-deleted/WT medrep)” value: 2.5 for the first, 2.5 for the second.

B11 was tested, and the “Ratio (SH3-deleted/WT medrep)” value was 2.5.
